Measurements published in patent publication US9688764B2, “Methods of treating breast cancer by administering anti-human prolactin receptor (PRLR) antibodies” (REGENERON PHARMACEUTICALS, INC., priority 2013, dated 2017).

T1: PRLR-expressing cells (T47D) (Homo sapiens, UniProt P16471)
T1 construct: a native PRLR expressing cell line (T47D); endogenous in cells; host or cells: T47D
T1 sequence (P16471 25-622): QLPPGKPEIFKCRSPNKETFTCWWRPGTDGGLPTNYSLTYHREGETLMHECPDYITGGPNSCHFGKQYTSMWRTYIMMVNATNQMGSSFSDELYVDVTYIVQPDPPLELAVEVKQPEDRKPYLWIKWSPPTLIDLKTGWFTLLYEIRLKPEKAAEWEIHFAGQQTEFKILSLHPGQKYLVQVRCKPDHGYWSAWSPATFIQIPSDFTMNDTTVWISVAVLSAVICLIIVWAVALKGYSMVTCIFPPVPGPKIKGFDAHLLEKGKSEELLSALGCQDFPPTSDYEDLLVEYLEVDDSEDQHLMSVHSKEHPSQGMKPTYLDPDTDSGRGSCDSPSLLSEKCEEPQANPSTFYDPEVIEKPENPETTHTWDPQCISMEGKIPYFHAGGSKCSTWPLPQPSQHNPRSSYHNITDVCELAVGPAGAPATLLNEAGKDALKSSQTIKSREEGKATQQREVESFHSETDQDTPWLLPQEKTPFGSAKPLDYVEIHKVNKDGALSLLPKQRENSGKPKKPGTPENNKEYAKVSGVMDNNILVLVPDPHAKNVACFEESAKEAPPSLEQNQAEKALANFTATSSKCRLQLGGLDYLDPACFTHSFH


What was measured:
[1] = biological target: T2, hPRLR.mmh (soluble monomeric human PRLR) (Homo sapiens, UniProt P16471); assay: Surface plasmon resonance (Biacore T200), mAb-capture format; assay type: binding; conditions: antibody-capture format, analyte hPRLR.mmh
T2 construct: soluble monomeric (hPRLR.mmh); mmh (myc-myc-hexahistidine)
Protocol: (§1) Antibodies, expressed as human IgG1 Fc “[…]” designations), were captured onto an anti-human Fc sensor surface (mAb-capture format), and soluble monomeric (hPRLR.mmh; SEQ ID NO:401, or macaca fascicularis (mf) PRLR.mmh; SEQ ID NO:403) or dimeric (hPRLR.mFc; SEQ ID NO:402) PRLR protein was injected over the sensor surface. Measurements were conducted on a T200 Biacore instrument. Kinetic association (ka) and dissociation (kd) rate constants were determined by processing and fitting the data to a 1:1 binding model using Scrubber 2.0 curve fitting software.

[2] = biological target: mfPRLR.mmh (monomeric macaca fascicularis PRLR); assay: as above; assay type: binding; conditions: antibody-capture format, analyte mfPRLR.mmh
Protocol: as §1

[3] = biological target: T3, hPRLR.mFc (soluble dimeric human PRLR) (Homo sapiens, UniProt P16471); assay: as above; assay type: binding; conditions: antibody-capture format, analyte hPRLR.mFc
T3 construct: dimeric (hPRLR.mFc)
Protocol: as §1

[4] = biological target: T1, PRLR-expressing cells (T47D); assay: Antibody binding and internalization by PRLR-expressing cells (imaging); assay type: cell-based; conditions: [mAb] (0.67 nM); for % Internalization relative to Control I: alexa488 intensity in intracellular vesicles, 1 h at 37° C.; for % Total Binding relative to Control I: whole cell alexa488 intensity at 37° C.
Protocol: In this Example, the internalization of anti-PRLR antibodies by PRLR-expressing cells (T47D) was assessed. Briefly, 20,000 T47D cells were seeded in collagen coated 96 well plates. […] Cells were then incubated with alexa488 conjugated anti-hFc Fab secondary antibodies for 30 minutes on ice followed by two additional PBS washes. Antibodies were allowed to internalize for 1 h at 37° C. in internalization buffer (PBS+2% FBS) or remained at 4° C. Cells were fixed in 4% formaldehyde, nuclei were stained with DRAQ5 (Cell signaling), and images were acquired on the ImageXpress micro XL (Molecular Devices). Whole cell alexa488 intensity at 37° C. (Binding) and the alexa488 intensity in the intracellular vesicles at 37° C. (Internalization) were determined via Columbus image analysis software (PerkinElmer).

T2 sequence (P16471 with tags, fused parts or gaps): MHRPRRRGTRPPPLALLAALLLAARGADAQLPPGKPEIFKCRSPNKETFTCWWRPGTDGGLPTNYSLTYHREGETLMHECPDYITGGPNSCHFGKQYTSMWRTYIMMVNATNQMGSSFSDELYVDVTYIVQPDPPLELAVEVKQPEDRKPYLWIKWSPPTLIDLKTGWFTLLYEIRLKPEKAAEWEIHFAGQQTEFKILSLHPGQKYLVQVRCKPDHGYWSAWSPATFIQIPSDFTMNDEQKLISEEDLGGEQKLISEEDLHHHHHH
Sequence of mfPRLR.mmh (monomeric macaca fascicularis PRLR) (as listed by the source): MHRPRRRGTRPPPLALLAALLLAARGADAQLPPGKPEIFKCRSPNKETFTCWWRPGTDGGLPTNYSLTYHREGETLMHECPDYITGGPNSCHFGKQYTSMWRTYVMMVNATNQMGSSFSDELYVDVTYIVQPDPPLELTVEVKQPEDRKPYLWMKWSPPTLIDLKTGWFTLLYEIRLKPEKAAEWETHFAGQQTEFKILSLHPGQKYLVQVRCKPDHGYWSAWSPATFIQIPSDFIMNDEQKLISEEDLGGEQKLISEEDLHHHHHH
T3 sequence (P16471 with tags, fused parts or gaps): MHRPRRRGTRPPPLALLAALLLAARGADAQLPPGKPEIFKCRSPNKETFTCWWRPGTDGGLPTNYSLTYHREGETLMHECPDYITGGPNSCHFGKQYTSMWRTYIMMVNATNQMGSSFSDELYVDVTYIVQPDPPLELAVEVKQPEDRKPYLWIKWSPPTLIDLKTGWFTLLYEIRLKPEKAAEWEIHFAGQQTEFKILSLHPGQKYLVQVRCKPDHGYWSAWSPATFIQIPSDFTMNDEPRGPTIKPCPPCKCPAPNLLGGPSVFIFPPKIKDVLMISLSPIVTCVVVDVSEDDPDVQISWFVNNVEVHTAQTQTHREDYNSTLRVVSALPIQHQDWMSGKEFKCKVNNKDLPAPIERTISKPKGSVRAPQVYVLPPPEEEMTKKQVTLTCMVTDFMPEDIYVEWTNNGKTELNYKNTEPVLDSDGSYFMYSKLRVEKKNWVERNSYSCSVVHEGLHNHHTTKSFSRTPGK

Row | Kd ([1]; 25° C.) | T½ ([1]; 25° C.) | Kd ([1]; 37° C.) | T½ ([1]; 37° C.) | Kd ([2]; 25° C.) | Kd ([2]; 37° C.) | Kd ([3]; 25° C.) | T½ ([3]; 25° C.) | Kd ([3]; 37° C.) | T½ ([3]; 37° C.) | % Internalization relative to Control I [4] | % Total Binding relative to Control I [4] | Molecule | T½ ([2]; 25° C.) | T½ ([2]; 37° C.)
1 | 0.685 nM | 47 min | 1.28 nM | 16 min | 1.05 nM | 1.99 nM | 0.225 nM | 162 min | 0.217 nM | 89 min | 179.3% | 209.9% | H1H6782P: anti-PRLR antibody, human IgG1 Fc; HCVR/LCVR SEQ ID NOs 66/74; non-blocking (antibody, V domains shown, human IgG1 Fc) VH: EVQLVESGGGLVQPGRSLRLSCAASGFTFDDYAMHWVRQAPGKGLEWVSGIIWNSGHIGYGDSVKGRFTISRDNAKKSLYLQMNSLRAEDTALYYCARDSGRYQSYFDYWGQGTLVTVSS VL: DIQMTQSPSTLSASVGDRVTITCRASHIISSWLAWYQQKPGKAPKVLIFKASSLESGVPSRFSGSGSGTEFTLTISSLQPDDFATYYCQQYNTYSRTFGQGTKVEIK | 41 min | 15 min
2 | 0.61 nM | 91 min | 0.91 nM | 37 min | 0.986 nM | 1.08 nM | 0.236 nM | 191 min | 0.226 nM | 117 min | 165.1% | 166.2% | H1H6781P: anti-PRLR antibody, human IgG1 Fc; HCVR/LCVR SEQ ID NOs 50/58 (antibody, V domains shown, human IgG1 Fc) VH: EVQLVESGGDLVQPGESLRLSCTASGFTFNSYEMNWVRQAPGKGLEWVSYISSSGGTKYYVDSVKGRFTISRDNAKKSLYLQMNSLRADDTALYYCARLNGVDVFDIWGQGTMVTVSS VL: DIQMTQSPSSLSASVGDRVTITCRASQDIFNYLAWFQQKPGKVPELLISAASTLQSGVPSRFSGSGSGTYFTLTISSLQPEDIATYYCQRYNSAPLTFGGGTKVEIK | 82 min | 43 min
3 | 0.567 nM | 68 min | 1.14 nM | 24 min | 0.738 nM | 1.52 nM | 0.231 nM | 190 min | 0.256 nM | 99 min | 169.1% | 168.0% | H1H6785P: anti-PRLR antibody, human IgG1 Fc; HCVR/LCVR SEQ ID NOs 98/106 (antibody, V domains shown, human IgG1 Fc) VH: EVQLVESGGGLVQPGGSLRLSCAASGFTFSSYEMNWVRQAPGKGLEWISYISSRGGTIYYADSIKGRFTIYRDNARNSLYLQMNSLRAEDTAIYYCARLSGVDIFDIWGQGTMVTVSS VL: DIQMTQSPSSLSASVGDRVTITCRASQGISNYLAWYQQKPGKVPKLLIYFASTLQSGVPSRFSGGGSGTDFTLTISSLQPEDVATYYCQRYNSAPLTFGGGTKVEIK | 69 min | 26 min
4 | 1.52 nM | 7 min | 3.81 nM | 2 min | 2.33 nM | 6.16 nM | 0.0545 nM | 137 min | 0.0402 nM | 149 min | 150.7% | 123.4% | H1H6795P: anti-PRLR antibody, human IgG1 Fc; HCVR/LCVR SEQ ID NOs 162/170 (antibody, V domains shown, human IgG1 Fc) VH: QVQLVQSGAEVKKPGASVKVSCKASGYTFGTSGITWVRQAPGQGLEWMGWSSAYNGKTDYAQKFQDRVTMTTDTSTTTGYMEMRSLTSDDTAVYYCTTVVRRPFDFWGQGTLVTVSS VL: DIQMTQSPSSLSASVGDRVTITCRASQDINNFLAWFQQKPGKAPKSLIYAASSLQSGVPSKFSGGGSGTDFALTISSLQPEDFATYYCQQYSSYPITFGQGTRLEIK | 6 min | 2 min
5 | 1.41 nM | 35 min | 3.02 nM | 11 min | 2.22 nM | 4.59 nM | 0.331 nM | 153 min | 0.347 nM | 81 min | 179.9% | 177.9% | H1H6793P: anti-PRLR antibody, human IgG1 Fc; HCVR/LCVR SEQ ID NOs 146/154 (antibody, V domains shown, human IgG1 Fc) VH: EVQLVESGGGLVQPGGSLRLSCAASGFSFSIYAMSWFRQAPGKGLEWVSAINGRGDGTHYADSVKGRFTISRDNSKTTLYLQMSSLRAEDTAVYYCAKPVMSTNGFDIWGQGTMVTVSS VL: DIQMTQSPSTLSASVGDRVTITCRASQSISSWLAWYQLKPGKAPKLLIYKASNLESGVPSRFSGSGSGTEFTLTISSLQPDDFATYYCQQYNIYWTFGQGTKVEIK | 29 min | 11 min
6 | 2.45 nM | 15 min | 5.27 nM | 5 min | 4.17 nM | 9.37 nM | 0.313 nM | 122 min | 0.352 nM | 66 min | 155.9% | 110.6% | H1H6792P: anti-PRLR antibody, human IgG1 Fc; HCVR/LCVR SEQ ID NOs 130/138 (antibody, V domains shown, human IgG1 Fc) VH: EVQLVESGGGLVQPGRSLRLSCAASGFTLDDHAVHWVRQAPGKGLEWVSGISWNSVYIDYADSVKGRFTIFRDNAKNSLYLQMNSLRAEDTAFYYCARDIEGARDYWGQGTLVTVSS VL: DIQMTQSPSSLSASVGDRVTITCRASQGIRNDLGWYQQKPGKAPKRLIYAASSLQSGVPSRFSGSGYGTEFTLTISSLQPEDFAPYYCLQHNSYPLTFGGGTKVEIK | 12 min | 4 min
7 | 1.41 nM | 14 min | 3.5 nM | 4 min | 2.04 nM | 5.22 nM | 0.192 nM | 111 min | 0.306 nM | 58 min | 146.9% | 122.8% | H1H6790P: anti-PRLR antibody, human IgG1 Fc; HCVR/LCVR SEQ ID NOs 114/122 (antibody, V domains shown, human IgG1 Fc) VH: EVQLVESGGGLVQPGGSLRLSCAASGFTFSSYAMTWVRQAPGKGLEWVSAITGSVGNTYYADSVKGRFTISRDNSKNTLYLQMNSLGAEDTAEYYCAKGAGMTTNWYLDLWGRGTLVTVSS VL: DIVMTQSPDSLAVSLGARATINCKSSQSVLYSSNNQNYLTWYQQKPGQPPKLLIKWASTRESGVPDRFSGSGSGTDFTLTISSLQAEDVAVYYCQQYASSPYTFGQGTKLEIK | 15 min | 4 min
